Measured values reported in patent US20140303084.
Numbering of substitutions follows the chain as printed.

How the values were obtained:
[1] = system: T1, HLFGADWLGA RTAPG KLTCLASYCWLFWTGIA
T1 sequence: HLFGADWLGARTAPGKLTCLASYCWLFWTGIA

[2] = system: T2, RR-MeAla-PGKLTCLASYCWLFWTGIA
T2 sequence: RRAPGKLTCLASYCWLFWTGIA

[3] = system: T3, VSGTGRLTCVASYCWMFQLGSF
T3 sequence: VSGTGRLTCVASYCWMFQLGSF

[4] = system: T4, RRAPGCLTALASYCWLFWTGIA-COOH
T4 sequence: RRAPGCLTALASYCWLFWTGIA

[5] = system: T5, RSTVSQMRCLASYCWLFPALVS
T5 sequence: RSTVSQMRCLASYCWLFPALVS

[6] = system: T6, aigtwflwcysalctlkgparr (retro-inverso)
T6 sequence: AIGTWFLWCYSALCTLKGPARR

[7] = system: T7, (KLTCLASYCWLFG)2═N-O-(CH2)3-O-N═
T7 sequence: KLTCLASYCWLFG

[8] = system: T8, RRAPGKLT-Asp-LASY-Lys-WLFWTGIA-COOH
T8 sequence: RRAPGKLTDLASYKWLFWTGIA

[9] = system: T9, RRAPGKLTCLASYCWLFWTGIA-COOH
T9 sequence: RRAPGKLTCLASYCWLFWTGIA

[10] = system: T10, rRAAGKLTCLASYCWLFATGIA
T10 sequence: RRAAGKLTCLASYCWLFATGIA

[11] = system: T11, ALTCLAAYCALF
T11 sequence: ALTCLAAYCALF

[12] = system: T12, AVDSLPLYGA RSAPS KLTCLASYCWLFWTGIA
T12 sequence: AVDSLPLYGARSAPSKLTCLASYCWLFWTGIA

[13] = system: T13, RRAPGKLT-Asp-LASY-Orn-WLFWTGIA-COOH
T13 sequence: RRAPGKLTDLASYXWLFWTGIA

[14] = system: T14, k-MeLeu-TCLASFCWLF
T14 sequence: KLTCLASFCWLF

[15] = system: T15, SKQGRPISPDrRAAGKLTCLASYCWLF
T15 sequence: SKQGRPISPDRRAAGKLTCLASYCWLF

[16] = system: T16, RRAPGKLQCLASYCWLFWAGIA
T16 sequence: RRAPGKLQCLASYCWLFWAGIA

[17] = system: T17, PRIRTVGPGSRSASGKLTCLASYCWLFWTSIA
T17 sequence: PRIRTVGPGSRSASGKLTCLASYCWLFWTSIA

[18] = system: T18, Pra-PEG4-PRIrTVGPGSrSASGKSTCLASYCWLFWTGIA
T18 sequence: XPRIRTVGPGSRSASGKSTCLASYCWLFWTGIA

[19] = system: T19, C(N-ethylmaleimide)-PEG4-LVPR-PEG4-rRAPGKLTCLASYCWLFWTGIA
T19 sequence: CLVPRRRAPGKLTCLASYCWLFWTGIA

[20] = system: T20, rRAAGKATCLASYCWLFATGIA
T20 sequence: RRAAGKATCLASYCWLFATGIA

[21] = system: T21, PRIRTVGPGSRSASGKLTCLASYCWLFWTFIA
T21 sequence: T17 sequence with S30F

[22] = system: T22, compound 3
T22 sequence: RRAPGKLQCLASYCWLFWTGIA

[23] = system: T23, RRAPGKLCALASYCWLFWTGIA-CONH2
T23 sequence: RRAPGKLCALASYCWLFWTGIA

[24] = system: T24, PRIRTVSPGSRSASGKSTCLASYCWLFWTGIA
T24 sequence: T17 sequence with G7S, L17S, S30G

[25] = system: T25, PRIRTVGPGSRSASGKLTCLASYCWLLWTGIA
T25 sequence: T17 sequence with F27L, S30G

[26] = system: T26, HYARVQLRCLDGYCWLLTKSRM
T26 sequence: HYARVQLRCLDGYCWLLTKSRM

[27] = system: T27, RRAPGKLQCLASYCWLFATAIA
T27 sequence: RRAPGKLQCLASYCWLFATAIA

[28] = system: T28, KLTCLASYCWYF
T28 sequence: KLTCLASYCWYF

[29] = system: T29, KKTCVASFCQMI
T29 sequence: KKTCVASFCQMI

[30] = system: T30, RRAPGKLQCLASYCWLFWTG-Cha-A
T30 sequence: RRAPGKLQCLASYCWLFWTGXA

[31] = system: T31, TLWPWGGQGG RNAPG KLTCLASYCWLFWTGIA
T31 sequence: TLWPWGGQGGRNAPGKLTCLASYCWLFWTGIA

[32] = system: T32, PRSRTVGPGSRSASGKSTCLASYCWLFWTGIA
T32 sequence: T17 sequence with I3S, L17S, S30G

[33] = system: T33, RRAPGKCTALASYAWCFWTGIA-CONH2
T33 sequence: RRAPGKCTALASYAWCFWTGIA

[34] = system: T34, RRAPGKLTCLASK(PEG2-Biotin)CWLFWTGIA
T34 sequence: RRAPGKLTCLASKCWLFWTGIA

[35] = system: T35, KLTCLASYCWL
T35 sequence: KLTCLASYCWL

[36] = system: T36, C(PEG5k)GGG-RRAPGKLT-Asp-LASY-Lys-WLFWTGIA
T36 sequence: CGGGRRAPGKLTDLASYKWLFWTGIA

[37] = system: T37, RRAKGKLQCLASYCWLFWTGIA
T37 sequence: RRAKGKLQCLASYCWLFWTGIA

[38] = system: T38, KKTCLASYCWLF
T38 sequence: KKTCLASYCWLF

[39] = system: T39, RGRSAKLTCLASYCWLFFGVIL
T39 sequence: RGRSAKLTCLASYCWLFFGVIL

[40] = system: T40, rRAPGKSTCLASYCWLFWTGIA
T40 sequence: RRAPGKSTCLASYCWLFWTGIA

[41] = system: T41, RRAPGKLT-Orn-LASY-Asp-WLFWTGIA-COOH
T41 sequence: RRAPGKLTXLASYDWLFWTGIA

[42] = system: T42, KLTCQASYCWLF
T42 sequence: KLTCQASYCWLF

[43] = system: T43, KLKCLASYCWLF
T43 sequence: KLKCLASYCWLF

[44] = system: T44, K-MeLeu-TCLASYCWLF
T44 sequence: KLTCLASYCWLF

[45] = system: T45, KLT-Glu-LASY-Dap-WLF
T45 sequence: KLTELASYXWLF

[46] = system: T46, RRAPKKLQCLASYCWLFWTGIA
T46 sequence: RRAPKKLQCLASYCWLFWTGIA

[47] = system: T47, EGRRDKLTCLASYCWLVGHGQH
T47 sequence: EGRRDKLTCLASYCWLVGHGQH

[48] = system: T48, RKAPGKLQCLASYCWLFWTGIA
T48 sequence: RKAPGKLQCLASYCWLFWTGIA

human Factor IXa
> 0.3: Vmax, FXa generation assay [47]
3.9 mOD/min min: Vmax (mOD/min min), with phospholipids [22]
16 nM: KM (nM) of hFIXa for FX [22]
(++): Vmax, FXa generation assay; (++) means 1-2 [1] | Vmax, FXa generation assay; (++) means 1-2 [3] | Vmax, FXa generation assay; (++) means 1-2 [5] | Vmax, FXa generation assay; (++) means 1-2 [8] | Vmax, FXa generation assay; (++) means 1-2 [10] | Vmax, FXa generation assay; (++) means 1-2 [11] | Vmax, FXa generation assay; (++) means 1-2 [12] | Vmax, FXa generation assay; (++) means 1-2 [13] | Vmax, FXa generation assay; (++) means 1-2 [18] | Vmax, FXa generation assay; (++) means 1-2 [19] | Vmax, FXa generation assay; (++) means 1-2 [20] | Vmax, FXa generation assay; (++) means 1-2 [33] | Vmax, FXa generation assay; (++) means 1-2 [34] | Vmax, FXa generation assay; (++) means 1-2 [36] | Vmax, FXa generation assay; (++) means 1-2 [37] | Vmax, FXa generation assay; (++) means 1-2 [38] | Vmax, FXa generation assay; (++) means 1-2 [40] | Vmax, FXa generation assay; (++) means 1-2 [42] | Vmax, FXa generation assay; (++) means 1-2 [45] | Vmax, FXa generation assay; (++) means 1-2 [46]
> 2.5: Vmax, FXa generation assay [26]
> 4: Vmax, FXa generation assay [29]
2.77 mOD/min min: Vmax (mOD/min min), without phospholipids [22]
0.21: Δ KM (Km compound/Km buffer) [22]
> 3: Vmax, FXa generation assay [2] | Vmax, FXa generation assay [7] | Vmax, FXa generation assay [15] | Vmax, FXa generation assay [16] | Vmax, FXa generation assay [17] | Vmax, FXa generation assay with hFIXa [22] | Vmax, FXa generation assay [24] | Vmax, FXa generation assay [25] | Vmax, FXa generation assay [27] | Vmax, FXa generation assay [30] | Vmax, FXa generation assay [32] | Vmax, FXa generation assay [35] | Vmax, FXa generation assay [43]
0.0177 min⁻¹: kcat (min^-1) of hFIXa for FX, compound at 1 µM [22]
> 2: Vmax, FXa generation assay [4] | Vmax, FXa generation assay [6] | Vmax, FXa generation assay [9] | Vmax, FXa generation assay [14] | Vmax, FXa generation assay [21] | Vmax, FXa generation assay [23] | Vmax, FXa generation assay [28] | Vmax, FXa generation assay [31] | Vmax, FXa generation assay [39] | Vmax, FXa generation assay [41] | Vmax, FXa generation assay [44] | Vmax, FXa generation assay [48]
